Each block holds one molecule with its values, some of them ahead of it.
Assays:
mouse neutrophils [1] = assay: Chemotaxis assay of mouse neutrophils to mC5a; assay type: cell-based
Method: Five hours later, mice were killed and the peritoneal cavity was lavaged four times with 10 mL DPBS. Fluids were centrifuged and residual red blood cells removed by a hypotonic lysis step. Remaining peritoneal cells were washed and resuspended in HBSS.
After neutrophil isolation, cells were fluorescein-labeled with BCECF (2′,7′-bis [2-carboxyethyl]-5-[and 6]-carboxy-fluorescein acetoxymethyl ester) (Molecular Probes, Eugene, Oreg.). Labeled neutrophils (5×10^6 cells/mL) were then loaded into the upper chambers of 96-well minichambers (NeuroProbe, Cabin John, Md.). […] The upper and lower chambers were separated by a polycarbonate membrane of 3 μm porosity. Minichambers were incubated for 60 min at 37° C. The number of cells migrating through polycarbonate filters to the lower surface was measured by cytofluorometry (Cytofluor II, PerSeptive Biosystems, Framingham, Mass.). For each measurement, quadruplicate samples were used.

mouse C5a receptor = molecular target: T1, mouse C5a receptor (mouse, UniProt P30993 1-351); assay: competition of unlabeled mC5a with 100 pM 125I-mC5a on mouse peritoneal neutrophils, 20 min at 4 C
T1 construct: whole, on cells
T1 sequence (looked up): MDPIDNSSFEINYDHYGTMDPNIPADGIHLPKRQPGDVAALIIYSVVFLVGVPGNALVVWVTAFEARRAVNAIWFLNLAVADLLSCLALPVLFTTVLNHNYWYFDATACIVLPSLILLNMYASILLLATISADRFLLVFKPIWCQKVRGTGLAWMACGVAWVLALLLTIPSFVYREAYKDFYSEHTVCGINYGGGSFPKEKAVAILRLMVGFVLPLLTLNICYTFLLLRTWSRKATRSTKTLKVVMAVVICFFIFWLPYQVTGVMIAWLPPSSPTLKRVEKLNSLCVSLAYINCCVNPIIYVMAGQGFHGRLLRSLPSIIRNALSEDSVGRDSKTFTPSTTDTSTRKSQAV
Method: Isolated neutrophils were incubated for 1 h at 4° C. in binding buffer (HBSS without Ca^2+ and containing 1% BSA) to block nonspecific surface binding sites. […] After an incubation interval of 20 min at 4° C., cell suspensions were layered over 20% sucrose and sedimented by centrifugation at 11,000 g (Beckman Microfuge B, Palo Alto, Calif.) for 2 min. […] Binding affinities (K_d values) of C5a were calculated in the conventional manner (Chenoweth et al., (1978) *Proc. Natl. Acad. Sci. USA* 75,3943-3947). […]
Recent reports have described CSaRa binding affinities to rat and human neutrophils (Wong et al., (1998) *J. Med. Chem.* 41,3417-3425; Short et al., (1999) *Br. J. Pharmacol.* 128,511-514). To assess whether C5aRa also binds to mouse neutrophils, competitive binding studies using C5aRa and mC5a were undertaken.

[2] = molecular target: T2, C5aR on mouse peritoneal neutrophils (Mus musculus, UniProt P30993); assay: Competitive binding of 125I-mC5a to mouse peritoneal neutrophils; conditions: recombinant protein
T2 construct: Mice were injected i.p. with 2.5 mL sterile 3% thioglycolate medium (DIFCO Laboratories, Detroit, Mich.) for harvesting of mouse neutrophils; endogenous in cells; host or cells: mouse peritoneal neutrophils (thioglycolate-elicited, whole cells)
T2 sequence (P30993 1-351): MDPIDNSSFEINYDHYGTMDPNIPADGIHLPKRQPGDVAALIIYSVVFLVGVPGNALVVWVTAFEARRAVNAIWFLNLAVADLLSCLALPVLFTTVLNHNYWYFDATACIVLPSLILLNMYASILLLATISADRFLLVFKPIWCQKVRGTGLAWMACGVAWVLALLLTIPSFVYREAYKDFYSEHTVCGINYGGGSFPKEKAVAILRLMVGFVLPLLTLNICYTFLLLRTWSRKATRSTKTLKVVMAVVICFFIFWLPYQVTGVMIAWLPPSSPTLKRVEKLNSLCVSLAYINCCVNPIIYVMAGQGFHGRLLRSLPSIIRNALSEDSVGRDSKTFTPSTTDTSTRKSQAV
Method: (§1) Mice were injected i.p. with 2.5 mL sterile 3% thioglycolate medium (DIFCO Laboratories, Detroit, Mich.) for harvesting of mouse neutrophils (Ajuebor et al., (1999) J. Immunol. 162,1685-1691). Five hours later, mice were killed and the peritoneal cavity was lavaged four times with 10 mL DPBS. Fluids were centrifuged and residual red blood cells removed by a hypotonic lysis step. Remaining peritoneal cells were washed and resuspended in HBSS. Aliquots of cells were stained with Diff-Quik Stain (Dade International, Miami, Fla.) and examined for neutrophil purity (>95%) and viability (>97%) by trypan blue exclusion (Fildes et al., (1998) J. Trauma 45,479-484).
For binding studies, mC5a was labeled with […], using the chloramine T-based protocol (Bennett et al., (1997) Methods Enzymol. 288,134-148) with gentle oxidation, which preserves chemotactic activity of mC5a for mouse neutrophils. Isolated neutrophils were incubated for 1 h at 4° C. in binding buffer (HBSS without Ca^2+ and containing 1% BSA) to block nonspecific surface binding sites. […] Binding affinities (Kd values) of C5a were calculated in the conventional manner (Chenoweth et al., (1978) Proc. Natl. Acad. Sci. USA 75,3943-3947). […]

mouse neutrophils [3] = assay: Neutrophil oxidative burst (H2O2 generation, PMA-stimulated); assay type: cell-based
Method: as §1
H2O2 generation was determined in the presence of 1 mM sodium azide. As indicated, mouse neutrophils (2×10^6 cells/mL) were pretreated with mC5a (10 nM) for 60 min at 37° C. in the presence or absence of different amounts of C5aRa. To stimulate neutrophils, cells were then incubated with PMA (25 ng/mL) for an additional 10 min. The reaction was stopped by addition of 0.1 mL trichloroacetic acid (50% v/v), then ferrous ammonium sulfate (1.5 mM) and potassium thiocyanate (0.25 M) were added to supernatant fluids. The absorbance of the ferrithiocyanate complex was measured at 480 nm and compared with a standard curve generated from dilutions of reference solutions of H2O2.

Molecule: ^125I-C5aRa: C5aRa labeled with 125I by the chloramine T method (FXPXWR; non-natural residues; cyclised or stapled) [reference compound]
chemotactic response to mC5a in presence of radiolabeled antagonist (mouse neutrophils [1]; 10 nM 125I-C5aRa, mC5a 1-100 nM): virtually completely suppressed

Kd (mouse C5a receptor): ~3 nM
B1: recombinant mouse C5a (ligand, UniProt P06684 679-755, looked up)
chain: NLHLLRQKIEEQAAKYKHSVPKKCCYDGARVNFYETCEERVARVTIGPLCIRAFNECCTIANKIRKESPHKPVQLGR
modifications: 125I label (chloramine T) on the tracer form only; the competitor was unlabeled
notes: domain: C5a; Expressed in E. coli BL21(DE3) pLysS from pET 15b (NdeI/BamHI) and purified over a Ni2+ column; C5a is only a fragment of it; also called mC5a; recombinant mouse (m) C5a

binding to mouse neutrophils [2]: high-affinity binding
B2: mC5a: recombinant mouse C5a expressed in BL21 (DE3) pLysS cells, purified over a Ni2+ column (protein)
chain: NLHLLRQKIEEQAAKYKHSVPKKCCYDGARVNFYETCEERVARVTIGPLCIRAFNECCTIANKIRKESPHKPVQLGR
chemotactic response evoked by the substance alone (mouse neutrophils [1]; 10 nM): robust chemotactic response
biological (chemotactic) activity (mouse neutrophils [1]; recombinant protein): had biological (chemotactic) activity
basal H2O2 production vs ctrl cells (mouse neutrophils [3]; 10 nM alone, 60 min at 37° C., no PMA): neither mC5a alone nor C5aRa alone significantly altered
PMA-stimulated H2O2 production after exposure to mC5a (mouse neutrophils [3]; 10 nM mC5a 60 min, absence of C5aRa, then PMA 25 ng/mL): completely abolished

— patent US7455837B2, “Compositions and methods for the diagnosis and treatment of sepsis” (The Regents of the University of Michigan, priority 2002, dated 2008)
